Measurements as given in paper doi:10.1101/2022.03.17.484791.

Target: PY-NLS mutants (R206W/Q/G, P209L, and Y210C)
Experiment: co-IP

Work on “Kapβ2, endogenous in HEK293T cells (from UniProt Q92973 1-898) (receptor)” yielded a reduction in Kapβ2 interaction against WT of 50 to 75%.
